The target in one test is DR4-Fc (UniProt O00220). The experiment in a line: BLI; Octet; DR4-Fc or DR5-Fc immobilised on protein A-coated biosensors, inserted into solutions of TRAIL proteins at different concentrations (2.5-50 nM).
The target of a further test is DR5-Fc (UniProt O14763). Described as above.

For one substance, Kd results are on record in PMC9176698.

pKd: −log10 of the molar value.

Sequence of UniProt O00220 (O00220 24-239): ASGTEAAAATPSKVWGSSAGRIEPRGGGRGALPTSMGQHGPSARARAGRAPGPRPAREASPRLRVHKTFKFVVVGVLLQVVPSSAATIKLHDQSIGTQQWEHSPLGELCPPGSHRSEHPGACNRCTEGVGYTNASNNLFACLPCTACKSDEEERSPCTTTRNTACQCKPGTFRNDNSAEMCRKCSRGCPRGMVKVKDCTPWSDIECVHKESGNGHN
Sequence of UniProt O14763 (O14763 56-210): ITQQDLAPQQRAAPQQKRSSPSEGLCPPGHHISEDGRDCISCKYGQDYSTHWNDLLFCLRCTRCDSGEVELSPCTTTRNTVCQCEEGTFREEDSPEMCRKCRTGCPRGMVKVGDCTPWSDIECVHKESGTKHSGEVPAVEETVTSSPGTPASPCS

As a reminder, the pKd is the Kd on a negative log10 scale, so that one unit is a factor of ten. Consider “RGR-TRAIL (tumor-homing RGR peptide fused to the N-terminus of TRAIL) (ligand)”, for which the pKd with DR4-Fc is 8.96; with DR5-Fc it was 9.34.
